Data published in US20190315854A1 (BEIJING VDJBIO, published 2019).
Positions count from the first letter of the chain named.

T1: sIL-6R (soluble IL-6 receptor; SBH Sciences) (human, UniProt P08887 20-365)
T1 construct: also called human IL-6R
T1 sequence: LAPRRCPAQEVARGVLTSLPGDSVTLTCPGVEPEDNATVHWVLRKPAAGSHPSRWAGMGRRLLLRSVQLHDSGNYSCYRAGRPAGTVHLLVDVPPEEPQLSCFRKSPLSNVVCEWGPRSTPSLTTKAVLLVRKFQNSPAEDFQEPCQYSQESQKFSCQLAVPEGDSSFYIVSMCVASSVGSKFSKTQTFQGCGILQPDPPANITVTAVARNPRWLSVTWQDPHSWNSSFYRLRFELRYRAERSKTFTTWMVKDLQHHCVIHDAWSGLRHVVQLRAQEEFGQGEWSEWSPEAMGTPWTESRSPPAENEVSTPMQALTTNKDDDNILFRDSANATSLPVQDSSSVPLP

B1: 3# (antibody, human IgG1, kappa, V domains shown)
VH: QVQLQESGPGLVRPSQTLSLTCTVSGYSITSDHAWSWVRQPPGRGLEWIGYISYSGITTYNPSLKSRVTMLRDTSKNQFSLRLSSVTAADTAVYYCARSLARATAMDYWGQGSLVTVSS
VL: DIQMTQSPSSLSASVGDRVTITCRASQDISSYLNWYQQKPGKAPKLLIYYTSRLHSGVPSRFSGSGSGTDFTFTISSLQPEDIATYYCQQGNTLPYTFGQGTKVEIKR
notes: also called Sample # 3
B2: 30# (antibody, human IgG1, kappa, V domains shown)
VH: B1 VH with Y51F, I57M, S99C, A103T
VL: B1 VL
notes: also called Sample # 30
B3: 28# (antibody, human IgG1, kappa, V domains shown)
VH: B1 VH with Y51F, I57M, A103T
VL: B1 VL
notes: also called Sample # 28
B4: 12# (antibody, human IgG1, kappa, V domains shown)
VH: B1 VH with Y51F, S99C
VL: B1 VL
notes: also called Sample # 12
B5: 9# (antibody, human IgG1, kappa, V domains shown)
VH: B1 VH with T58I, P62A, S99C, A103T
VL: B1 VL
notes: also called Sample # 9
B6: 27# (antibody, human IgG1, kappa, V domains shown)
VH: B1 VH with Y51F, I57M
VL: B1 VL
notes: also called Sample # 27
B7: 11# (antibody, human IgG1, kappa, V domains shown)
VH: B1 VH with Y51F
VL: B1 VL
notes: also called Sample # 11
B8: 17# (antibody, human IgG1, kappa, V domains shown)
VH: B1 VH with Y51F, S99C, A103T
VL: B1 VL
notes: also called Sample # 17
B9: 15# (antibody, human IgG1, kappa, V domains shown)
VH: B1 VH with Y51F, S99C, A103I
VL: B1 VL
notes: also called Sample # 15
B10: 18# (antibody, human IgG1, kappa, V domains shown)
VH: B1 VH with Y51F, S99C, A103I
VL: B1 VL
notes: also called Sample # 18
B11: 31# (antibody, human IgG1, kappa, V domains shown)
VH: B1 VH with Y51F, I57M, A103I
VL: B1 VL
notes: also called Sample # 31
B12: 24# (antibody, human IgG1, kappa, V domains shown)
VH: B1 VH with S99C, A103I
VL: B1 VL
notes: also called Sample # 24
B13: 26# (antibody, human IgG1, kappa, V domains shown)
VH: B1 VH with I57M, A103T
VL: B1 VL
notes: also called Sample # 26
B14: 16# (antibody, human IgG1, kappa, V domains shown)
VH: B1 VH with Y51F, A103I
VL: B1 VL
notes: also called Sample # 16
B15: 14# (antibody, human IgG1, kappa, V domains shown)
VH: B1 VH with Y51F, A103I
VL: B1 VL
notes: also called Sample # 14
B16: 35# (antibody, human IgG1, kappa, V domains shown)
VH: B1 VH with A103M
VL: B1 VL
notes: also called Sample # 35
B17: 45# (antibody, human IgG1, kappa, V domains shown)
VH: B1 VH with S99T, A103T
VL: B1 VL
notes: also called Sample # 45
B18: 51# (antibody, human IgG1, kappa, V domains shown)
VH: B1 VH with S99C, A103M
VL: B1 VL
notes: also called Sample # 51
B19: 49# (antibody, human IgG1, kappa, V domains shown)
VH: B1 VH with P62A, A103T
VL: B1 VL
notes: also called Sample # 49
B20: 56# (antibody, human IgG1, kappa, V domains shown)
VH: B1 VH with Y51F, I57M, T58I, A103I
VL: B1 VL
notes: also called Sample # 56

biological target: T1, sIL-6R (soluble IL-6 receptor; SBH …); experiment: SPR (BIAcore 3000), antibody on chip, sIL-6R analyte, 25 C
Description: (§1) All SPR measurements were performed on a BIAcore 3000 instrument (GE Biosciences, Piscataway, N.J.). BIAcore Software-BIAcore 3000 Control Software V3.2 was used for the operation and control of the BIAcore 3000 instrument. BiaEvaluation Software V4.1 was used for the analysis of SPR data from the BIAcore 3000 instrument and data was plotted using Graph Pad Prism Software Version 5. […] The indicated antibodies were used as the ligand for the construction of the reference channel of the chip. […] Each sample was injected for 3 min at a flow rate of 30 μL/min to allow for binding to chip-bound antibody. Next, binding buffer without analyte was sent over the chip at the same flow rate to allow for dissociation of bound analyte. After 500s, remaining bound analyte was removed by injecting regeneration solution (1M Formic acid). Data was analyzed by using the Kinetics Wizard and the manual fitting programs that are both included with the BiaEvaluation Software V4.1.

| Binder | Kd [pM] | Relative Affinity | koff [s⁻¹] | kon [M⁻¹ s⁻¹] |
| --- | --- | --- | --- | --- |
| B1 | 273 | 4.9 fold vs 25 (Tocilizumab) | 5.8e-05 | 213000 |
| B2 | 235 | 5.7 fold vs 25 (Tocilizumab) | 7.03e-05 | 299000 |
| B3 | 268 | 5 fold vs 25 (Tocilizumab) | 7.61e-05 | 284000 |
| B4 | 288 | 4.6 fold vs 25 (Tocilizumab) | 8.32e-05 | 289000 |
| B5 | 249 | 5.4 fold vs 25 (Tocilizumab) | 5.94e-05 | 239000 |
| B6 | 102 | 13.1 fold vs 25 (Tocilizumab) | 3.46e-05 | 339000 |
| B7 | 86.3 | 15.5 fold vs 25 (Tocilizumab) | 2.38e-05 | 275000 |
| B8 | 304 | 4.4 fold vs 25 (Tocilizumab) | 8.71e-05 | 287000 |
| B9 | 145 | 9.2 fold vs 25 (Tocilizumab) | 4.49e-05 | 310000 |
| B10 | 141 | 9.5 fold vs 25 (Tocilizumab) | 4.73e-05 | 335000 |
| B11 | 100 | 13.4 fold vs 25 (Tocilizumab) | 2.92e-05 | 292000 |
| B12 | 281 | 4.8 fold vs 25 (Tocilizumab) | 7.13e-05 | 254000 |
| B13 | 420 | 3.2 fold vs 25 (Tocilizumab) | 0.000102 | 243000 |
| B14 | 136 | 9.8 fold vs 25 (Tocilizumab) | 4.04e-05 | 296000 |
| B15 | 181 | 7.4 fold vs 25 (Tocilizumab) | 5.69e-05 | 314000 |

biological target: T1, sIL-6R (soluble IL-6 receptor; SBH …); experiment: as above; remark: another data set of the same source
Description: as §1

| Binder | Kd [pM] | Relative Affinity | koff [s⁻¹] | kon [M⁻¹ s⁻¹] |
| --- | --- | --- | --- | --- |
| B1 | 435 | 3.9 fold vs 25 (Tocilizumab) | 8.87e-05 | 204000 |
| B16 | 648 | 2.6 fold vs 25 (Tocilizumab) | 0.000146 | 225000 |
| B2 | 255 | 6.7 fold vs 25 (Tocilizumab) | 8.33e-05 | 327000 |
| B3 | 408 | 4.2 fold vs 25 (Tocilizumab) | 0.000148 | 363000 |
| B4 | 418 | 4.1 fold vs 25 (Tocilizumab) | 0.000126 | 302000 |
| B5 | 320 | 5.3 fold vs 25 (Tocilizumab) | 6.28e-05 | 196000 |
| B17 | 605 | 2.8 fold vs 25 (Tocilizumab) | 0.000106 | 175000 |
| B6 | 126 | 13.6 fold vs 25 (Tocilizumab) | 4.27e-05 | 339000 |
| B7 | 112 | 15.3 fold vs 25 (Tocilizumab) | 3.08e-05 | 276000 |
| B8 | 354 | 4.8 fold vs 25 (Tocilizumab) | 0.000117 | 331000 |
| B9 | 200 | 8.6 fold vs 25 (Tocilizumab) | 5.97e-05 | 298000 |
| B10 | 167 | 10.2 fold vs 25 (Tocilizumab) | 5.42e-05 | 325000 |
| B11 | 156 | 11 fold vs 25 (Tocilizumab) | 5.99e-05 | 385000 |
| B12 | 317 | 5.4 fold vs 25 (Tocilizumab) | 7.99e-05 | 252000 |
| B14 | 187 | 9.1 fold vs 25 (Tocilizumab) | 6.3e-05 | 336000 |
| B15 | 261 | 6.6 fold vs 25 (Tocilizumab) | 9.75e-05 | 374000 |

biological target: T1, sIL-6R (soluble IL-6 receptor; SBH …); experiment: as above; remark: another data set of the same source
Description: as §1

| Binder | Kd [pM] | Relative Affinity | koff [s⁻¹] | kon [M⁻¹ s⁻¹] |
| --- | --- | --- | --- | --- |
| B18 | 420 | 6.8 fold vs 25 (Tocilizumab) | 5.72e-05 | 136000 |
| B19 | 1650 | 1.7 fold vs 25 (Tocilizumab) | 0.000218 | 132000 |
| B20 | 243 | 11.7 fold vs 25 (Tocilizumab) | 5.59e-05 | 230000 |
